Data reported in patent US20200256880A1 (BROAD INSTITUTE, published 2020).

Assays:
Test in all cases: western blot of recombinant protein
[1] = target: T1, recombinant human CNAα wild type (unphosphorylated) (human, UniProt Q08209 1-521, limits assumed)
T1 construct: Co-expressed with the CNB1 subunit in E. coli and co-purified; run on denaturing gels for western blot; also called wild-type CNAα; WT CNAα
Method: (§1) Levels of total CNAα were used as a loading control and were assessed after stripping of the membranes and incubation with anti-CNAα rabbit by chemiluminescence (bottom panel).

[2] = target: T2, recombinant human CNAα S469E phosphomimetic mutant (human, UniProt Q08209 1-521, limits assumed)
T2 construct: Co-expressed with CNB1 in E. coli and co-purified; also called S469E CNAα; phosphomimic mutant S469E
Method: as §1

[3] = target: recombinant CNAα double mutant S462E/S469E (human, UniProt Q08209 1-521, limits assumed)
Method: as §1

B1: monoclonal mouse anti-pS469 CNAα antibody (antibody, V domains shown)
VH: EVQLQQSGAELVRPGASVKLSCTASDFNIKDTYIHWLKQRPEQGLEWIGRIDPANSNPKYDPNFQGKATITTDTSSNTAYLQLSSLTSDDTAVYYCTRRDYYGSGSWFAYWGQGTLVTVSS
VL: DIVMTQAAPSVPVTPGESVSISCRSSKSLLHSNGNTYLYWFLQRPGQSPQLLIYRMSNLASGVPDRFSGSGSGTAFTLRINRVEAEDVGVYYCMQHLEYPLTFGAGTKLELK
notes: 7 and 9 are used; Mouse monoclonal; also called monoclonal mouse anti-S469 phosphospecific antibody; monoclonal murine anti-S469 CNAα phosphospecific antibody
B1: no binding [1]; binds [2]; binds [3].
